The results in this text go back to article PMC5462952.

This test deals with HA-tagged C-terminal region of CaV1.3α (aa 1509–2203) (rat) (UniProt P27732).
UniProt P27732, sequence (P27732 1509-2203): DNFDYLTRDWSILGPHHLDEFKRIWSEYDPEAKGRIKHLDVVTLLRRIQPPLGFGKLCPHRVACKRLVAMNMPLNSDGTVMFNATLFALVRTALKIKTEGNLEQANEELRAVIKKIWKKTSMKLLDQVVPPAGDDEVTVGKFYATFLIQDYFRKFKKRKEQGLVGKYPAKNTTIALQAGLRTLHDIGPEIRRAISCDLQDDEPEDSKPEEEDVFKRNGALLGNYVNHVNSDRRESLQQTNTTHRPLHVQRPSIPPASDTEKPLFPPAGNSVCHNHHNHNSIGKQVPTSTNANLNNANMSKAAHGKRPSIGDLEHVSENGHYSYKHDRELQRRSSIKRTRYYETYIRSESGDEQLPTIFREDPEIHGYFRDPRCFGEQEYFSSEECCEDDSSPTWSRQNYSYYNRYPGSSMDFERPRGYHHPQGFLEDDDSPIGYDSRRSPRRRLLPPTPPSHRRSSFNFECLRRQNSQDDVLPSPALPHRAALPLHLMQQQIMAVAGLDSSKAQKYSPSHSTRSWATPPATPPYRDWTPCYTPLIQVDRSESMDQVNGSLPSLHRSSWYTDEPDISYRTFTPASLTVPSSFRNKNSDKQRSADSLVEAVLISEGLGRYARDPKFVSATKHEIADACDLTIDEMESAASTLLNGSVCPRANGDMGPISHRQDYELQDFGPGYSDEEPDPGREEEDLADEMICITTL

Take “full-length untagged RIM2α (from UniProt Q9EQZ7-1 1-1530) (natural protein)”: the shift of the voltage-dependence of CaV1.3 channel activation in HEK293/SK3-1 cells co-expressing RIM2α worked out at 3 mV.
